Data: patent US20190134153A1, “IMMUNOMODULATORY EFFECT OF INHALED KINASE INHIBITOR PEPTIDES IN LUNG” (MOERAE MATRIX, INC., priority 2017, published 2019)

What was measured:
Test in all cases: Kinase Profiling Assay
Format in all cases: biochemical
Conditions in all cases: 100 μM
Src(1-530)(h) = target: T1, Src(1-530)(h) (Homo sapiens, UniProt P12931)
T1 construct: Src(1-530)(h)

GSK3β(h) = GSK3β(h) (Homo sapiens, UniProt P49841)
CDK6/cyclinD3(h) = CDK6/cyclinD3(h) (Homo sapiens, UniProt Q00534)
Sequence of CDK6/cyclinD3(h) (Q00534 whole entry): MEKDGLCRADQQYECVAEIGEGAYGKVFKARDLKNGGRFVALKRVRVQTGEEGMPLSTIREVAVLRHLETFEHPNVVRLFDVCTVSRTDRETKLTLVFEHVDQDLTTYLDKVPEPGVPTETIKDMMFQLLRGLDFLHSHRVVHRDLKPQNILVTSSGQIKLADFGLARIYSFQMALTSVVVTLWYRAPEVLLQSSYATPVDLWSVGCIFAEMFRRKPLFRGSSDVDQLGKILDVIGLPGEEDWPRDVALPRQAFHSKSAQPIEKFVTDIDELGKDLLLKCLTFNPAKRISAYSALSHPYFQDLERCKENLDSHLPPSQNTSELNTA
Sequence of CDK6/cyclinD3(h) (P30281 whole entry partner): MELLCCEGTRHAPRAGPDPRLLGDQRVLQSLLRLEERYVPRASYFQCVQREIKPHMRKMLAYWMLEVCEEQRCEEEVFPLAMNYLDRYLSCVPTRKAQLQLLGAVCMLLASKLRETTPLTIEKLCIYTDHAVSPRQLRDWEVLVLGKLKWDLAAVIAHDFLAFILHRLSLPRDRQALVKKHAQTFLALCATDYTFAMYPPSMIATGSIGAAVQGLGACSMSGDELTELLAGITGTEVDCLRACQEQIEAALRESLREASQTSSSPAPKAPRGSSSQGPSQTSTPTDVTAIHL

EphB2(h) = target: T2, EphB2(h) (Homo sapiens, UniProt P29323)
T2 sequence (P29323 19-1055): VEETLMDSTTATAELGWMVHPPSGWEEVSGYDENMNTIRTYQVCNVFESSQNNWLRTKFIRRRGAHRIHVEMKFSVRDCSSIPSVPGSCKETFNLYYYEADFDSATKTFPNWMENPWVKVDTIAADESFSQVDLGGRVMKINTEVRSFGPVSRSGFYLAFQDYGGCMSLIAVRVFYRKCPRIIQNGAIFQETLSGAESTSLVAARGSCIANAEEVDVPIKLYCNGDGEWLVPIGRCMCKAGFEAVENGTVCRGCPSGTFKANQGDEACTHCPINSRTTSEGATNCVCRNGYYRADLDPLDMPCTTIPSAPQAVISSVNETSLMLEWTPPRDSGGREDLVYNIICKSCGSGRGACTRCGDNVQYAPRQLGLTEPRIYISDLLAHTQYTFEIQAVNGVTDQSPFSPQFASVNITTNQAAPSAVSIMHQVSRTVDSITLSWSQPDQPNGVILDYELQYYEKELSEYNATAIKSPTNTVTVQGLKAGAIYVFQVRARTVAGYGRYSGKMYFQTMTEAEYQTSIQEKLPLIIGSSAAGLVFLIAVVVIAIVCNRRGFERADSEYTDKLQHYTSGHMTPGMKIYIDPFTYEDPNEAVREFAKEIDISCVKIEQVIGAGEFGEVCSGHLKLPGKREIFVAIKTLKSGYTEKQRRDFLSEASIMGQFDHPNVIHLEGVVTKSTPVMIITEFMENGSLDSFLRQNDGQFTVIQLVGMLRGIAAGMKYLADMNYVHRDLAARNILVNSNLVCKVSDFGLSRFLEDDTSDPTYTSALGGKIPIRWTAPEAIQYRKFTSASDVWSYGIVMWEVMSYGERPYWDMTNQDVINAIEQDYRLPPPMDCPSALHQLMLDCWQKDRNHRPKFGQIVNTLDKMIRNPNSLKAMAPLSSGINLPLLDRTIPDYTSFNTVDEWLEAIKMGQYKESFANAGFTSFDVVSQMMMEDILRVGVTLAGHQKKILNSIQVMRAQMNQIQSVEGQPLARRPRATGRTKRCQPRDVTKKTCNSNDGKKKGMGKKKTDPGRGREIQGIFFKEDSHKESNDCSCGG

PAK5(h) = PAK5(h) (Homo sapiens, UniProt Q9P286)
Bmx(h) = target: T3, Bmx(h) (Homo sapiens, UniProt P51813)
T3 sequence (P51813 1-675): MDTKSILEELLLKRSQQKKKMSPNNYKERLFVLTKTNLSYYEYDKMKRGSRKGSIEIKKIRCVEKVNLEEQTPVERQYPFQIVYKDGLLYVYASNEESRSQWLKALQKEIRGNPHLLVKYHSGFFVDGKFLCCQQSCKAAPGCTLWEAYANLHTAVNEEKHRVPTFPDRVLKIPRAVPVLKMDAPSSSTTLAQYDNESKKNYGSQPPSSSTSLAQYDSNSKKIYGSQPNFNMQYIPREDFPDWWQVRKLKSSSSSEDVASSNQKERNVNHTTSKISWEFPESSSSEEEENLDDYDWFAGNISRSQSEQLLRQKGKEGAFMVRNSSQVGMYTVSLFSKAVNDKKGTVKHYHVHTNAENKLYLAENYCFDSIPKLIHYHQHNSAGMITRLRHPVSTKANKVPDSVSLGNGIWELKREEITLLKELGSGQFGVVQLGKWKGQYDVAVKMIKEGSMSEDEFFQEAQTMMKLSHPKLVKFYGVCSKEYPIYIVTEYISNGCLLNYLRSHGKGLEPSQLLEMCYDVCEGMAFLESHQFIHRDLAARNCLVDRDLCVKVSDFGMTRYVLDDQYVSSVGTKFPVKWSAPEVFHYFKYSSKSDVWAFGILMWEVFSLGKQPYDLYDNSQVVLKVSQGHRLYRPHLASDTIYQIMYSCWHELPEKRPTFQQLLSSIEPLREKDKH

Tie2(Y897S)(h) = Tie2(Y897S)(h) (Homo sapiens, UniProt Q02763, Y897S)
IRAK1(h) = IRAK1(h) (Homo sapiens, UniProt P51617)
Sequence of IRAK1(h) (P51617 whole entry): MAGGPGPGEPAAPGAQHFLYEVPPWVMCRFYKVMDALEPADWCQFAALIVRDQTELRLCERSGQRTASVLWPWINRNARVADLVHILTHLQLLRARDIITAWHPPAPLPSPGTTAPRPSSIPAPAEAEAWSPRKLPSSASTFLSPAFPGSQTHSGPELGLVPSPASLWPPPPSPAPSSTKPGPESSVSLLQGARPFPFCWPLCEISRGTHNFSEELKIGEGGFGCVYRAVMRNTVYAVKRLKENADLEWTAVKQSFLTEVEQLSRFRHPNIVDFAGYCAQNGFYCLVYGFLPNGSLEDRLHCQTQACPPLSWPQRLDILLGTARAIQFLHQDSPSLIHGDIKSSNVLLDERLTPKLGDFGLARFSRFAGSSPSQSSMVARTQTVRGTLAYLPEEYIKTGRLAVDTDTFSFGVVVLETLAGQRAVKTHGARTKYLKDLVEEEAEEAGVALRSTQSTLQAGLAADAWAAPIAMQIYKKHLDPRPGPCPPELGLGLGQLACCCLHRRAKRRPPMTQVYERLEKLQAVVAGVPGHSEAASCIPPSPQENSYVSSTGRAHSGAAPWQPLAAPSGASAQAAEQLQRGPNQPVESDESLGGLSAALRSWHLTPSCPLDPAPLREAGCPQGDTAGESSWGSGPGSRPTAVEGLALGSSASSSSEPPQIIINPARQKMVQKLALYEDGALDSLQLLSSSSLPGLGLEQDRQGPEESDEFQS

HIPK2(h) = HIPK2(h) (Homo sapiens, UniProt Q9H2X6)
Sequence of HIPK2(h) (Q9H2X6 whole entry): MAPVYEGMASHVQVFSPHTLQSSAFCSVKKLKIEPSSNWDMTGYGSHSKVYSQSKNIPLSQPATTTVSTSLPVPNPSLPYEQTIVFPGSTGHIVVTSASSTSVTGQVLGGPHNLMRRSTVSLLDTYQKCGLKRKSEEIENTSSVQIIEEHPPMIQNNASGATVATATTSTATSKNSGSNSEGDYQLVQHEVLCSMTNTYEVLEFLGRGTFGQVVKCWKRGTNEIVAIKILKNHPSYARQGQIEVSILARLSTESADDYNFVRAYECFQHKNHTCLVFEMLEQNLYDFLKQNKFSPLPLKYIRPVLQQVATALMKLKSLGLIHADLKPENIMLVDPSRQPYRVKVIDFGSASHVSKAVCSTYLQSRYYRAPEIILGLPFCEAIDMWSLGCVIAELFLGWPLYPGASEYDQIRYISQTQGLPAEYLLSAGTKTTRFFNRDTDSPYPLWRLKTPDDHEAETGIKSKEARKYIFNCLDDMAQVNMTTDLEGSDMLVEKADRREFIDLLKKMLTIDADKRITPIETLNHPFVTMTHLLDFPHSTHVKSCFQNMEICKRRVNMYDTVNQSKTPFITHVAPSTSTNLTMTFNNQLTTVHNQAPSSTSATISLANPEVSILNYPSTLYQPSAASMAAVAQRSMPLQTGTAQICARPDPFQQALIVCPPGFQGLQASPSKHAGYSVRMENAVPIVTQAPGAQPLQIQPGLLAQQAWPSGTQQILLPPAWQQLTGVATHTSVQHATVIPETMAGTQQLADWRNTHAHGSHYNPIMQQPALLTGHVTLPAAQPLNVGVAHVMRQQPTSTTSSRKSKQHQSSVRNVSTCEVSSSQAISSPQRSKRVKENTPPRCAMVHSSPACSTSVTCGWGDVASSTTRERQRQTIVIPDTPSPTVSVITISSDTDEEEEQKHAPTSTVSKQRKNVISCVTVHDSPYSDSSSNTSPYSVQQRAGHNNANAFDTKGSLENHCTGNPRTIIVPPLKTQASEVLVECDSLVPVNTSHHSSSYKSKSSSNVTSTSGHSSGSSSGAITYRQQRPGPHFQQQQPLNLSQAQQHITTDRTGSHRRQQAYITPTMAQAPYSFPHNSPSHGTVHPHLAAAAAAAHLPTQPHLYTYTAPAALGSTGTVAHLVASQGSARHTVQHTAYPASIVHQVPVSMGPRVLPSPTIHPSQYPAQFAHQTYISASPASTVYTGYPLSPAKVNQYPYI

PRAK(h) = target: T4, PRAK(h) (Homo sapiens, UniProt Q8IW41)
T4 sequence (Q8IW41 1-473): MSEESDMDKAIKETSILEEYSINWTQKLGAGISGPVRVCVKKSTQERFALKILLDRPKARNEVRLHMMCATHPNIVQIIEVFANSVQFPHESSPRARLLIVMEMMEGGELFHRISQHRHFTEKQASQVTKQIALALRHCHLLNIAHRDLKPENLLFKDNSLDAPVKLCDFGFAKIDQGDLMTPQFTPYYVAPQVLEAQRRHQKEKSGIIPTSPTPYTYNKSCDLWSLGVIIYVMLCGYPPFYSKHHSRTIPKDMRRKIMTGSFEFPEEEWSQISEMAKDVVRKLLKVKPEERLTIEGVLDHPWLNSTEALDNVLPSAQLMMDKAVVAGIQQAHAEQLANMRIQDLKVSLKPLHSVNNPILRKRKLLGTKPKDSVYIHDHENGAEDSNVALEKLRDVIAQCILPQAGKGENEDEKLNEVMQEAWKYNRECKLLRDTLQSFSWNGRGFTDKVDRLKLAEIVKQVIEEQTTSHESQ

SIK(h) = SIK(h) (Homo sapiens, UniProt P57059)
Sequence of SIK(h) (P57059 whole entry): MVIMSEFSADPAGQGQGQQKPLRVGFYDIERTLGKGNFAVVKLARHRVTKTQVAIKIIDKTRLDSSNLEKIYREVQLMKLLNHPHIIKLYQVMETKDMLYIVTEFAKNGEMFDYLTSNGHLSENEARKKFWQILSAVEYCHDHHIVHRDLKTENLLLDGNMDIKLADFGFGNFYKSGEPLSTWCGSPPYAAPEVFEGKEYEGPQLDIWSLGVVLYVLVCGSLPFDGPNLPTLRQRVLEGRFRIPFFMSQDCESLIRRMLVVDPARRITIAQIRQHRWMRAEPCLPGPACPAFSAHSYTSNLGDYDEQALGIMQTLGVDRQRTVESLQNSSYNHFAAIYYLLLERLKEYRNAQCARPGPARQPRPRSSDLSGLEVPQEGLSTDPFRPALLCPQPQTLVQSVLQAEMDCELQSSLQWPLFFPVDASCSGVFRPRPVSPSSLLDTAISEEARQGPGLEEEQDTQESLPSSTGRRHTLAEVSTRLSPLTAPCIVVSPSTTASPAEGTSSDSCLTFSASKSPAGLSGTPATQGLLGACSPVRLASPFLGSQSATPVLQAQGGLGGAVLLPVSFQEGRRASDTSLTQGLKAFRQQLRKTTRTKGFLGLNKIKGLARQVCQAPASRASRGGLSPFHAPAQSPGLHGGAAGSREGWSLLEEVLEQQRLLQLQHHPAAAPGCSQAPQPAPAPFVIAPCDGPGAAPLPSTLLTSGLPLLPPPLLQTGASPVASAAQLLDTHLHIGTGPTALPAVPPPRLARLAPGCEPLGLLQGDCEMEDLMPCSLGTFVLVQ

TrkA(h) = TrkA(h) (Homo sapiens, UniProt P04629)
Sequence of TrkA(h) (P04629 33-796): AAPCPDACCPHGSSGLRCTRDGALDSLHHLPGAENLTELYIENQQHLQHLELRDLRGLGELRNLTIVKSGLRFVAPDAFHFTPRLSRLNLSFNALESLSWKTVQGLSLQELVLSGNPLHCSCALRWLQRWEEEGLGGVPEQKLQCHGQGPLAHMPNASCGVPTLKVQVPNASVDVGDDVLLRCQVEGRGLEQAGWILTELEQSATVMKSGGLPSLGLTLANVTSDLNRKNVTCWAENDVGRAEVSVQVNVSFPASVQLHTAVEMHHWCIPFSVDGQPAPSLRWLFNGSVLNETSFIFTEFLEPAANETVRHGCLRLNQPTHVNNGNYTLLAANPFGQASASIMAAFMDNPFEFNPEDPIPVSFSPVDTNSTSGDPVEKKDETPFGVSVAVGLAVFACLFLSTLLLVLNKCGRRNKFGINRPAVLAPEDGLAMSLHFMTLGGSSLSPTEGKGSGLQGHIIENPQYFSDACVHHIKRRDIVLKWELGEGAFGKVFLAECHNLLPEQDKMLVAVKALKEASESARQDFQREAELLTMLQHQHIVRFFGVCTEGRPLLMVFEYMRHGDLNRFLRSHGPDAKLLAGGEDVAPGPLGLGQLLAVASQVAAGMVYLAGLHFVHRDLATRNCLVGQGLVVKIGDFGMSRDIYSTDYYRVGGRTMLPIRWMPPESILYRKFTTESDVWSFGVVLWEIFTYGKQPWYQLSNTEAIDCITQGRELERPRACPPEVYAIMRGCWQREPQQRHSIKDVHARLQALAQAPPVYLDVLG

CHK2(h) = CHK2(h) (Homo sapiens, UniProt O96017)
Sequence of CHK2(h) (O96017 whole entry): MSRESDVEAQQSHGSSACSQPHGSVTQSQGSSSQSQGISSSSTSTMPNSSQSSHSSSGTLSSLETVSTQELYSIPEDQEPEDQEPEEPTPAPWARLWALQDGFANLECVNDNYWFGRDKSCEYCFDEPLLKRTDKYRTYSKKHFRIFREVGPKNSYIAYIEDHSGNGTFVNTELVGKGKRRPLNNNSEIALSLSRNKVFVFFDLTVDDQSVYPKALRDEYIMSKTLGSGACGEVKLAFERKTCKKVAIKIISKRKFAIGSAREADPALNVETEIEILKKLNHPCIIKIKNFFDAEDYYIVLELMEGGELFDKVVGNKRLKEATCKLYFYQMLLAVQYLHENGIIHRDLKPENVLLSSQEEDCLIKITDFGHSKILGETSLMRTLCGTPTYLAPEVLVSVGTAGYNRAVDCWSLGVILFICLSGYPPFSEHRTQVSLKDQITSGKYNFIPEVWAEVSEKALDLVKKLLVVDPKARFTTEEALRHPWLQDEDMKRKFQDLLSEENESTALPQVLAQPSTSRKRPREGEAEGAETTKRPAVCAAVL

Sequence of GSK3β(h) (P49841 whole entry): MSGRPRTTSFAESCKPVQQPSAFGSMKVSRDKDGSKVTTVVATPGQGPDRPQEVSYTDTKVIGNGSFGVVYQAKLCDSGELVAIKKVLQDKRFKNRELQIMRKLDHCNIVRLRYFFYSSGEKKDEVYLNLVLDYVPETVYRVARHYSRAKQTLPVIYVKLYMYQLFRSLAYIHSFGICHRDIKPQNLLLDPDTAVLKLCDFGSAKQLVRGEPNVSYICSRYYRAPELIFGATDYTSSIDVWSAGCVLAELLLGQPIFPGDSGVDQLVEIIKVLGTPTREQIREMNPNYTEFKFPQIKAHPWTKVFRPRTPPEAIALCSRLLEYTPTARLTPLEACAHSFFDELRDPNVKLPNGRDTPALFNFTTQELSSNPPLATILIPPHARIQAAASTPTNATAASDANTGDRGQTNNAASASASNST

Sequence	% activity (Src(1-530)(h))	% activity (GSK3β(h))	% activity (CDK6/cyclinD3(h))	% activity (EphB2(h))	% activity (PAK5(h))	% activity (Bmx(h))	% activity (Tie2(Y897S)(h))	% activity (IRAK1(h))	% activity (HIPK2(h))	% activity (PRAK(h))	% activity (SIK(h))	% activity (TrkA(h))	% activity (CHK2(h))
YARAAARQARAKALNRQLGVA [MMI-0200]	75%	132%	100%	128%	100%	76%	85%	101%					
FAKLAARLYRKALARQLGVAA [MMI-0300]	23%	205%	86%	18%	110%		83%	95%	73%	128%	66%	25%	66%
KAFAKLAARLYRKALARQLGVAA [MMI-0400]	19%	202%	85%	22%		26%	87%	93%	90%	118%	68%	17%	54%
HRRIKAWLKKIKALARQLGVAA [MMI-0500]	21%	238%	23%	70%	125%	45%	80%	5%	38%	95%	40%	24%	13%
